For 29 molecules, IC50 results are on record in patent publication US20180148477A1 (published 2018).

In the test the target is human α4β7 integrin on cells (human) (UniProt P13612). The test can be described thus: RPMI8866 adhesion to MAdCAM-1.

Bridge positions count the residues as written; N and C are the ends. Square brackets hold non-standard residues; d marks the D form. Bip = N[C@@H](Cc1ccc(-c2ccccc2)cc1)C(=O)O; 1Nal = N[C@@H](Cc1cccc2ccccc12)C(=O)O; 2Nal = N[C@@H](Cc1ccc2ccccc2c1)C(=O)O; NMeR = CN[C@@H](CCCNC(=N)N)C(=O)O; Tic = O=C(O)[C@@H]1Cc2ccccc2CN1; β3hE = N[C@@H](CCC(=O)O)CC(=O)O; Cha = N[C@@H](CC1CCCCC1)C(=O)O; Cit = NC(=O)NCCC[C@H](N)C(=O)O; NMeK = CN[C@@H](CCCCN)C(=O)O; Pen = CC(C)(S)[C@H](N)C(=O)O; hLeu = CC(C)CC[C@H](N)C(=O)O; Dab = NCC[C@H](N)C(=O)O

A word on the IC50: it is the point on the concentration scale where inhibition reaches its midpoint. For Ac-[Pen][NMeR]SDTL[Pen]WE[Dab]-NH2 (disulfide 1-7; also: dimer (monomer)2-DIG, DIG attachment place not given here) [SEQ ID NO: 97], the IC50 was below 10 nM.
Take Ac-[Pen][NMeR]SDTL[Pen][1Nal][dL][dK]-NH2 (disulfide 1-7 (inferred); also: homodimer via DIG) [SEQ ID NO: 113]: the IC50 is above 500 nM.
Next, Ac-[Pen][NMeR]SDTL[Pen]W[Cit][dK]-NH2 (disulfide 1-7; also: dimer (monomer)2-DIG, DIG attachment place not given here) [SEQ ID NO: 84]: above 10 nM.
Ac-[Pen][NMeR]SDTL[Pen][1Nal][dH][dK]-NH2 (disulfide 1-7 (inferred); also: homodimer via DIG) [SEQ ID NO: 112] showed an IC50 above 50 nM.
The molecule Ac-[Pen][NMeR]SDTL[Pen][2Nal][Tic][dK]-NH2 (disulfide 1-7 (inferred); also: homodimer via DIG) [SEQ ID NO: 121] came in with an IC50 above 100 nM.

B1: SEQ ID NO: 159 (peptide)
peptide: Ac-[Pen][NMeR]SDLL[Pen][2Nal][dE]-NH2
modifications: disulfide 1-7
SMILES: CC(=O)N[C@@H]1C(=O)N(C)[C@@H](CCCNC(=N)N)C(=O)N[C@@H](CO)C(=O)N[C@@H](CC(=O)O)C(=O)N[C@@H](CC(C)C)C(=O)N[C@@H](CC(C)C)C(=O)N[C@H](C(=O)N[C@@H](Cc2ccc3ccccc3c2)C(=O)N[C@H](CCC(=O)O)C(N)=O)C(C)(C)SSC1(C)C
As to B1, the IC50 is above 1000 nM.
Molecule Ac-[Pen][NMeR]SDTL[Pen][Bip][β3hE][dK]-NH2 (disulfide 1-7 (inferred); also: homodimer via DIG) [SEQ ID NO: 135] displayed an IC50 below 10 nM.

B2: SEQ ID NO: 164 (peptide)
peptide: Ac-[Pen][NMeR]SDTY[Pen][2Nal][dE]-NH2
modifications: disulfide 1-7
SMILES: CC(=O)N[C@@H]1C(=O)N(C)[C@@H](CCCNC(=N)N)C(=O)N[C@@H](CO)C(=O)N[C@@H](CC(=O)O)C(=O)N[C@@H]([C@@H](C)O)C(=O)N[C@@H](Cc2ccc(O)cc2)C(=O)N[C@H](C(=O)N[C@@H](Cc2ccc3ccccc3c2)C(=O)N[C@H](CCC(=O)O)C(N)=O)C(C)(C)SSC1(C)C
In turn, B2 had an IC50 above 1000 nM.
As to Ac-[Pen][NMeR]SDTL[Pen][2Nal][dH][dK]-NH2 (disulfide 1-7 (inferred); also: homodimer via DIG) [SEQ ID NO: 118], the IC50 was above 25 nM.
Ac-[Pen][NMeR]SDTL[Pen][2Nal][dR][dK]-NH2 (disulfide 1-7 (inferred); also: homodimer via DIG) [SEQ ID NO: 120] gave an IC50 above 1000 nM.

B3: SEQ ID NO: 158 (peptide)
peptide: Ac-[Pen][NMeR]SD[Cha]L[Pen][2Nal][dE]-NH2
modifications: disulfide 1-7
SMILES: CC(=O)N[C@@H]1C(=O)N(C)[C@@H](CCCNC(=N)N)C(=O)N[C@@H](CO)C(=O)N[C@@H](CC(=O)O)C(=O)N[C@@H](CC2CCCCC2)C(=O)N[C@@H](CC(C)C)C(=O)N[C@H](C(=O)N[C@@H](Cc2ccc3ccccc3c2)C(=O)N[C@H](CCC(=O)O)C(N)=O)C(C)(C)SSC1(C)C
Molecule B3 gave an IC50 above 1000 nM.

B4: SEQ ID NO: 160 (peptide)
peptide: Ac-[Pen][NMeR]SDIL[Pen][2Nal][dE]-NH2
modifications: disulfide 1-7
SMILES: CC[C@H](C)[C@@H]1NC(=O)[C@H](CC(=O)O)NC(=O)[C@H](CO)NC(=O)[C@H](CCCNC(=N)N)N(C)C(=O)[C@@H](NC(C)=O)C(C)(C)SSC(C)(C)[C@@H](C(=O)N[C@@H](Cc2ccc3ccccc3c2)C(=O)N[C@H](CCC(=O)O)C(N)=O)NC(=O)[C@H](CC(C)C)NC1=O
B4 came in with an IC50 above 1000 nM.

B5: SEQ ID NO: 162 (peptide)
peptide: Ac-[Pen][NMeR]SDTF[Pen][2Nal][dE]-NH2
modifications: disulfide 1-7
SMILES: CC(=O)N[C@@H]1C(=O)N(C)[C@@H](CCCNC(=N)N)C(=O)N[C@@H](CO)C(=O)N[C@@H](CC(=O)O)C(=O)N[C@@H]([C@@H](C)O)C(=O)N[C@@H](Cc2ccccc2)C(=O)N[C@H](C(=O)N[C@@H](Cc2ccc3ccccc3c2)C(=O)N[C@H](CCC(=O)O)C(N)=O)C(C)(C)SSC1(C)C
B5 registered an IC50 above 1000 nM.
As for Ac-[Pen][NMeR]SDTL[Pen][Bip][dE][dK]-NH2 (disulfide 1-7; also: dimer via DIG, attachment site not given here) [SEQ ID NO: 108], the IC50 is above 10 nM.

B6: SEQ ID NO: 75 (peptide)
peptide: Ac-[Pen][NMeR]SDTL[Pen][2Nal]E-NH2
modifications: disulfide 1-7
SMILES: CC(=O)N[C@@H]1C(=O)N(C)[C@@H](CCCNC(=N)N)C(=O)N[C@@H](CO)C(=O)N[C@@H](CC(=O)O)C(=O)N[C@@H]([C@@H](C)O)C(=O)N[C@@H](CC(C)C)C(=O)N[C@H](C(=O)N[C@@H](Cc2ccc3ccccc3c2)C(=O)N[C@@H](CCC(=O)O)C(N)=O)C(C)(C)SSC1(C)C
B6 had an IC50 above 50 nM.
Regarding Ac-[Pen][NMeR]SDTL[Pen][2Nal][dT][dK]-NH2 (disulfide 1-7 (inferred); also: dimer via DIG linker) [SEQ ID NO: 140], the IC50 is above 10 nM.
The molecule Ac-[Pen][NMeR]SDTL[Pen][1Nal][dF][dK]-NH2 (disulfide 1-7; also: dimer via DIG, attachment site not given here) [SEQ ID NO: 111] gave an IC50 above 100 nM.

B7: SEQ ID NO: 163 (peptide)
peptide: Ac-[Pen][NMeR]SDTQ[Pen][2Nal][dE]-NH2
modifications: disulfide 1-7
SMILES: CC(=O)N[C@@H]1C(=O)N(C)[C@@H](CCCNC(=N)N)C(=O)N[C@@H](CO)C(=O)N[C@@H](CC(=O)O)C(=O)N[C@@H]([C@@H](C)O)C(=O)N[C@@H](CCC(N)=O)C(=O)N[C@H](C(=O)N[C@@H](Cc2ccc3ccccc3c2)C(=O)N[C@H](CCC(=O)O)C(N)=O)C(C)(C)SSC1(C)C
With B7, the IC50 is above 1000 nM.

B8: SEQ ID NO: 161 (peptide)
peptide: Ac-[Pen][NMeR]SD[hLeu]L[Pen][2Nal][dE]-NH2
modifications: disulfide 1-7
SMILES: CC(=O)N[C@@H]1C(=O)N(C)[C@@H](CCCNC(=N)N)C(=O)N[C@@H](CO)C(=O)N[C@@H](CC(=O)O)C(=O)N[C@@H](CCC(C)C)C(=O)N[C@@H](CC(C)C)C(=O)N[C@H](C(=O)N[C@@H](Cc2ccc3ccccc3c2)C(=O)N[C@H](CCC(=O)O)C(N)=O)C(C)(C)SSC1(C)C
For B8, the IC50 was above 1000 nM.
For the molecule Ac-[Pen][NMeR]SDTL[Pen][1Nal][dT][dK]-NH2 (disulfide 1-7 (inferred); also: homodimer via DIG) [SEQ ID NO: 116], the IC50 is above 50 nM.
As for Ac-[Pen][NMeR]SDTL[Pen][1Nal][dR][dK]-NH2 (disulfide 1-7 (inferred); also: homodimer via DIG) [SEQ ID NO: 114], the IC50 was above 100 nM.

B9: SEQ ID NO: 157 (peptide)
peptide: Ac-[Pen][NMeR]SDFL[Pen][2Nal][dE]-NH2
modifications: disulfide 1-7
SMILES: CC(=O)N[C@@H]1C(=O)N(C)[C@@H](CCCNC(=N)N)C(=O)N[C@@H](CO)C(=O)N[C@@H](CC(=O)O)C(=O)N[C@@H](Cc2ccccc2)C(=O)N[C@@H](CC(C)C)C(=O)N[C@H](C(=O)N[C@@H](Cc2ccc3ccccc3c2)C(=O)N[C@H](CCC(=O)O)C(N)=O)C(C)(C)SSC1(C)C
Regarding B9, the IC50 is above 1000 nM.
Molecule Ac-[Pen][NMeR]SDTL[Pen][Tic][dE][dK]-NH2 (disulfide 1-7; also: dimer (monomer)2-DIG, DIG attachment place not given here) [SEQ ID NO: 80] displayed an IC50 above 50 nM.
Ac-[Pen][NMeR]SDTL[Pen][Bip]E[NMeK]-NH2 (disulfide 1-7 (inferred); also: homodimer via DIG) [SEQ ID NO: 136] yielded an IC50 below 10 nM.
In turn, Ac-[Pen][NMeR]SDTL[Pen]W[Tic][dK]-NH2 (disulfide 1-7; also: dimer via DIG, attachment site not given here) [SEQ ID NO: 109] yielded an IC50 above 100 nM.
With Ac-[Pen][NMeR]SDTL[Pen][2Nal][dF][dK]-NH2 (disulfide 1-7 (inferred); also: homodimer via DIG) [SEQ ID NO: 117] the figure was above 100 nM; with Ac-[Pen][NMeR]SDTL[Pen][1Nal][Tic][dK]-NH2 (disulfide 1-7 (inferred); also: homodimer via DIG) [SEQ ID NO: 115], above 100 nM; with Ac-[Pen][NMeR]SDTL[Pen][2Nal][dL][dK]-NH2 (disulfide 1-7 (inferred); also: homodimer via DIG) [SEQ ID NO: 119], above 500 nM.
Consider Ac-[Pen][NMeR]SDVL[Pen][2Nal][dE]-NH2 (disulfide 1-7 (inferred)) [SEQ ID NO: 156], for which the IC50 was above 100 nM.
